Results from US20220010021A1 (Sanofi, published 2022).

How the values were obtained:
[1] = biological target: cell surface receptor composed of the tyrosine kinase receptor FGFR1c and co-receptor beta-Klotho (KLB) (human, UniProt P11362 22-822; Q86Z14 1-1044); assay: cell-based or functional assay
beta-Klotho (KLB) = biological target: T1, beta-Klotho (KLB) (Homo sapiens (Human), UniProt Q86Z14 1-996); assay: BLI (Octet) off-rate screening, mAb from supernatant on anti-hIgG Fc sensor, 5 nmol/L KLB;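 also: dissociation followed for 1800 s in D-PBS plus 0.1% BSA, antibody supernatants applied at 25 µg/mL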
T1 construct: also called β-Klotho; not shown: C-terminal His tag of the bought R&D Systems protein
T1 sequence: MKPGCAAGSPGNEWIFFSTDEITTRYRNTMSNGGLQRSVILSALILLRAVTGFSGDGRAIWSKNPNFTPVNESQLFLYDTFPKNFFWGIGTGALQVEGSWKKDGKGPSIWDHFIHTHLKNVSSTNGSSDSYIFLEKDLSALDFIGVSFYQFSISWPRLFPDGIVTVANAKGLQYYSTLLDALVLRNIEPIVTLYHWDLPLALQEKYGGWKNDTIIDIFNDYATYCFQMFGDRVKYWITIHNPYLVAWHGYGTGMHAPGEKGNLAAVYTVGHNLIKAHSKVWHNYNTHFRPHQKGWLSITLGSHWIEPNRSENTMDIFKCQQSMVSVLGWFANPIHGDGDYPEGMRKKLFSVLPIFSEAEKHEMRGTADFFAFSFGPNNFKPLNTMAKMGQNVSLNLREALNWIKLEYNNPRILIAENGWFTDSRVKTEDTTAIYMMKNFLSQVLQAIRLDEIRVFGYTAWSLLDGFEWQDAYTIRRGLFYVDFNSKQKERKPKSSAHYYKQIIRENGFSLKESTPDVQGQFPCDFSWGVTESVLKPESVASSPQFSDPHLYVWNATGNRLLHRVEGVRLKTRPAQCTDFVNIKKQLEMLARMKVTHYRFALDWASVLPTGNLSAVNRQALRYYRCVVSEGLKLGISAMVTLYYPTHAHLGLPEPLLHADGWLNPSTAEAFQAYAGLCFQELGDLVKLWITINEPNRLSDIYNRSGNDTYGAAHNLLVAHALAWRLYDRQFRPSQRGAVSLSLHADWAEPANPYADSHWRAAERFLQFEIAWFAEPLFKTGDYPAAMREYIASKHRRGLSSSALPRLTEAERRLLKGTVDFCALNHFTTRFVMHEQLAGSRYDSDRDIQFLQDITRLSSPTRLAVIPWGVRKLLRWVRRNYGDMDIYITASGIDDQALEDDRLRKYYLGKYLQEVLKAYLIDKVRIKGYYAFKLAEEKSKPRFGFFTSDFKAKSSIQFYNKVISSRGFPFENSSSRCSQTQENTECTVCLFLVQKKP

Chain of cell surface receptor composed of the tyrosine kinase receptor FGFR1c and co-receptor beta-Klotho (KLB) (P11362 22-822, one chain of several): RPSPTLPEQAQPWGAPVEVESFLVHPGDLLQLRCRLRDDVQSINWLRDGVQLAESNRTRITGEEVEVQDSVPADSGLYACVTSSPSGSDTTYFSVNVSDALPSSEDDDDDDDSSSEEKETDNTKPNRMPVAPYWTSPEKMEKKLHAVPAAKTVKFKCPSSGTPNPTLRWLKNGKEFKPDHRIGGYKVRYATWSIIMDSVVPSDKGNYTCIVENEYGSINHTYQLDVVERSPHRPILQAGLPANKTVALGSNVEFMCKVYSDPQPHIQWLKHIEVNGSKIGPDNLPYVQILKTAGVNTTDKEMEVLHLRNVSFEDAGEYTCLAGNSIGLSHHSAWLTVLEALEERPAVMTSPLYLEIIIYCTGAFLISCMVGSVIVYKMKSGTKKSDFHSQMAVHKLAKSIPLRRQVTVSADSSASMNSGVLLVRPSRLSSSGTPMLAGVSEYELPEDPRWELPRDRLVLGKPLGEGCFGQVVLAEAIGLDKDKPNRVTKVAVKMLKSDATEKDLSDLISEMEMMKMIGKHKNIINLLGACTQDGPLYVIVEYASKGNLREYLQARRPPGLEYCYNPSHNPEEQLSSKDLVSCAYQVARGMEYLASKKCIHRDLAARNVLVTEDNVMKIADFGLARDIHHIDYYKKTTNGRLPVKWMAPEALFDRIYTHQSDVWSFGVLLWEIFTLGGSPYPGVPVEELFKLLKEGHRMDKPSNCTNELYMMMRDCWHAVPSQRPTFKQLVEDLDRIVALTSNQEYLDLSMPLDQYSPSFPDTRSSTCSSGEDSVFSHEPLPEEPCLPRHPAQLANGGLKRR

| Binder | Mean E max, Luciferase gene reporter assay [1] [%] | Mean EC50, Luciferase gene reporter assay [1] [nM] | koff (beta-Klotho (KLB)) [s⁻¹] |
| --- | --- | --- | --- |
| 16H7 variant with light chain substitution S94D (antibody, human IgG4 S228P, lambda, V domains shown, IgG4 backbone was used) VH: not shown VL: SYVLTQPPSVSVAPGQTARITCGGNNIGSESVHWYQQKPGQAPVLVVYDDSDRPSGIPERFSGSNSGNTATLTISRVEAGDEADYYCQVWDGNDDHVVFGGGTKLTVLG | 103 | 0.122 | 3.4e-05 |
| 16H7 variant with light chain substitution V97C (antibody, human IgG4 S228P, lambda, V domains shown, IgG4 backbone was used) VH: not shown VL: SYVLTQPPSVSVAPGQTARITCGGNNIGSESVHWYQQKPGQAPVLVVYDDSDRPSGIPERFSGSNSGNTATLTISRVEAGDEADYYCQVWDGNSDHCVFGGGTKLTVLG | 104 | 0.19 | 0.00023 |
| 16H7 variant with light chain substitution S94L (antibody, human IgG4 S228P, lambda, V domains shown, IgG4 backbone was used) VH: not shown VL: SYVLTQPPSVSVAPGQTARITCGGNNIGSESVHWYQQKPGQAPVLVVYDDSDRPSGIPERFSGSNSGNTATLTISRVEAGDEADYYCQVWDGNLDHVVFGGGTKLTVLG | 103 | 0.169 | 4.4e-05 |
| 16H7 variant with light chain substitution S94Y (antibody, human IgG4 S228P, lambda, V domains shown, IgG4 backbone was used) VH: not shown VL: SYVLTQPPSVSVAPGQTARITCGGNNIGSESVHWYQQKPGQAPVLVVYDDSDRPSGIPERFSGSNSGNTATLTISRVEAGDEADYYCQVWDGNYDHVVFGGGTKLTVLG | 100 | 0.098 | 6.2e-05 |
| 16H7 variant with light chain substitution S94I (antibody, human IgG4 S228P, lambda, V domains shown, IgG4 backbone was used) VH: not shown VL: SYVLTQPPSVSVAPGQTARITCGGNNIGSESVHWYQQKPGQAPVLVVYDDSDRPSGIPERFSGSNSGNTATLTISRVEAGDEADYYCQVWDGNIDHVVFGGGTKLTVLG | 106 | 0.126 | 4.3e-05 |
| 16H7 variant with light chain substitution S94R (antibody, human IgG4 S228P, lambda, V domains shown, IgG4 backbone was used) VH: not shown VL: SYVLTQPPSVSVAPGQTARITCGGNNIGSESVHWYQQKPGQAPVLVVYDDSDRPSGIPERFSGSNSGNTATLTISRVEAGDEADYYCQVWDGNRDHVVFGGGTKLTVLG | 104 | 0.123 | 5.7e-05 |
| 16H7 variant with light chain substitution S94N (antibody, human IgG4 S228P, lambda, V domains shown, IgG4 backbone was used) VH: not shown VL: SYVLTQPPSVSVAPGQTARITCGGNNIGSESVHWYQQKPGQAPVLVVYDDSDRPSGIPERFSGSNSGNTATLTISRVEAGDEADYYCQVWDGNNDHVVFGGGTKLTVLG | 103 | 0.133 | 3.3e-05 |
| 16H7 variant with light chain substitution V97N (antibody, human IgG4 S228P, lambda, V domains shown, IgG4 backbone was used) VH: not shown VL: SYVLTQPPSVSVAPGQTARITCGGNNIGSESVHWYQQKPGQAPVLVVYDDSDRPSGIPERFSGSNSGNTATLTISRVEAGDEADYYCQVWDGNSDHNVFGGGTKLTVLG | 95 | 0.206 | 0.00033 |
| 16H7 variant with light chain substitution V97I (antibody, human IgG4 S228P, lambda, V domains shown, IgG4 backbone was used) VH: not shown VL: SYVLTQPPSVSVAPGQTARITCGGNNIGSESVHWYQQKPGQAPVLVVYDDSDRPSGIPERFSGSNSGNTATLTISRVEAGDEADYYCQVWDGNSDHIVFGGGTKLTVLG | 110 | 0.12 | 1.7e-05 |
| 16H7 variant with light chain substitution V98F (antibody, human IgG4 S228P, lambda, V domains shown, IgG4 backbone was used) VH: not shown VL: SYVLTQPPSVSVAPGQTARITCGGNNIGSESVHWYQQKPGQAPVLVVYDDSDRPSGIPERFSGSNSGNTATLTISRVEAGDEADYYCQVWDGNSDHVFFGGGTKLTVLG | 102 | 0.161 | 1.6e-05 |
| 16H7 variant with light chain substitution V98C (antibody, human IgG4 S228P, lambda, V domains shown, IgG4 backbone was used) VH: not shown VL: SYVLTQPPSVSVAPGQTARITCGGNNIGSESVHWYQQKPGQAPVLVVYDDSDRPSGIPERFSGSNSGNTATLTISRVEAGDEADYYCQVWDGNSDHVCFGGGTKLTVLG | 100 | 0.105 | 6.4e-05 |
| 16H7 variant with light chain substitution S94T (antibody, human IgG4 S228P, lambda, V domains shown, IgG4 backbone was used) VH: not shown VL: SYVLTQPPSVSVAPGQTARITCGGNNIGSESVHWYQQKPGQAPVLVVYDDSDRPSGIPERFSGSNSGNTATLTISRVEAGDEADYYCQVWDGNTDHVVFGGGTKLTVLG | 109 | 0.116 | 3.2e-05 |
| 16H7 variant with light chain substitution S94V (antibody, human IgG4 S228P, lambda, V domains shown, IgG4 backbone was used) VH: not shown VL: SYVLTQPPSVSVAPGQTARITCGGNNIGSESVHWYQQKPGQAPVLVVYDDSDRPSGIPERFSGSNSGNTATLTISRVEAGDEADYYCQVWDGNVDHVVFGGGTKLTVLG | 108 | 0.119 | 2.8e-05 |
| 16H7 variant with light chain substitution S94M (antibody, human IgG4 S228P, lambda, V domains shown, IgG4 backbone was used) VH: not shown VL: SYVLTQPPSVSVAPGQTARITCGGNNIGSESVHWYQQKPGQAPVLVVYDDSDRPSGIPERFSGSNSGNTATLTISRVEAGDEADYYCQVWDGNMDHVVFGGGTKLTVLG | 101 | 0.117 | 1.2e-05 |
| 16H7 variant with light chain substitution S94F (antibody, human IgG4 S228P, lambda, V domains shown, IgG4 backbone was used) VH: not shown VL: SYVLTQPPSVSVAPGQTARITCGGNNIGSESVHWYQQKPGQAPVLVVYDDSDRPSGIPERFSGSNSGNTATLTISRVEAGDEADYYCQVWDGNFDHVVFGGGTKLTVLG | 100 | 0.132 | 1e-07 |
| 16H7 variant with light chain substitution S94W (antibody, human IgG4 S228P, lambda, V domains shown, IgG4 backbone was used) VH: not shown VL: SYVLTQPPSVSVAPGQTARITCGGNNIGSESVHWYQQKPGQAPVLVVYDDSDRPSGIPERFSGSNSGNTATLTISRVEAGDEADYYCQVWDGNWDHVVFGGGTKLTVLG | 103 | 0.159 | 4.3e-05 |
| 16H7 variant with light chain substitution S94E (antibody, human IgG4 S228P, lambda, V domains shown, IgG4 backbone was used) VH: not shown VL: SYVLTQPPSVSVAPGQTARITCGGNNIGSESVHWYQQKPGQAPVLVVYDDSDRPSGIPERFSGSNSGNTATLTISRVEAGDEADYYCQVWDGNEDHVVFGGGTKLTVLG | 100 | 0.122 | 1.4e-05 |
| 16H7 variant with light chain substitution V97L (antibody, human IgG4 S228P, lambda, V domains shown, IgG4 backbone was used) VH: not shown VL: SYVLTQPPSVSVAPGQTARITCGGNNIGSESVHWYQQKPGQAPVLVVYDDSDRPSGIPERFSGSNSGNTATLTISRVEAGDEADYYCQVWDGNSDHLVFGGGTKLTVLG | 110 | 0.129 | 5.9e-05 |
| 16H7 variant with light chain substitution V97T (antibody, human IgG4 S228P, lambda, V domains shown, IgG4 backbone was used) VH: not shown VL: SYVLTQPPSVSVAPGQTARITCGGNNIGSESVHWYQQKPGQAPVLVVYDDSDRPSGIPERFSGSNSGNTATLTISRVEAGDEADYYCQVWDGNSDHTVFGGGTKLTVLG | 99 | 0.142 | 0.0001 |
| 16H7 variant with light chain substitution V97F (antibody, human IgG4 S228P, lambda, V domains shown, IgG4 backbone was used) VH: not shown VL: SYVLTQPPSVSVAPGQTARITCGGNNIGSESVHWYQQKPGQAPVLVVYDDSDRPSGIPERFSGSNSGNTATLTISRVEAGDEADYYCQVWDGNSDHFVFGGGTKLTVLG | 45 | 3.02 | 2.1e-05 |
| 16H7 variant with light chain substitution V97M (antibody, human IgG4 S228P, lambda, V domains shown, IgG4 backbone was used) VH: not shown VL: SYVLTQPPSVSVAPGQTARITCGGNNIGSESVHWYQQKPGQAPVLVVYDDSDRPSGIPERFSGSNSGNTATLTISRVEAGDEADYYCQVWDGNSDHMVFGGGTKLTVLG | 103 | 0.214 | 3.3e-05 |
